# Test results as given in the supplement of paper PMC9112550, “Optimization of the antimicrobial peptide Bac7 by deep mutational scanning” (BMC Biology, 2022).
# Tested on: Escherichia coli TOP10
# Test: shrunken log2 fold change of peptide-encoding DNA abundance (4.5 h post-induction vs induction); higher = less antimicrobial activity (less host growth inhibition)
# Conditions: time post-induction: 4.5 h; library: site-saturation at positions 5, 18, 19, 20
# 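Also: peptides expressed intracellularly from a pBAD plasmid library in pooled LB shake-flask culture, induced with 0.3% L-arabinose, DNA abundance read by NGS, three biological replicates, DESeq2 with apeglm shrinkage.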
row,Sequence,shrunken log2 fold change
1,RRIRKRPPRLPRPRPRPKSFPRP,-0.125
2,RRIRVRPPRLPRPRPRPCGPPRP,-0.0876
3,RRIRERPPRLPRPRPRPHISPRP,-0.3
4,RRIRTRPPRLPRPRPRPHGFPRP,-0.0139
5,RRIRKRPPRLPRPRPRPLCQPRP,0.206
6,RRIRLRPPRLPRPRPRPIFKPRP,-0.276
7,RRIRYRPPRLPRPRPRPFSTPRP,-0.0961
8,RRIRQRPPRLPRPRPRPVYGPRP,-0.258
9,RRIRNRPPRLPRPRPRPDWNPRP,-0.212
10,RRIRHRPPRLPRPRPRPFSNPRP,-1.09
11,RRIRARPPRLPRPRPRPRMFPRP,0.345
12,RRIRGRPPRLPRPRPRPQVHPRP,0.231
13,RRIRMRPPRLPRPRPRPITHPRP,0.0509
14,RRIRVRPPRLPRPRPRPTCPPRP,0.243
15,RRIRSRPPRLPRPRPRPKRRPRP,0.33
16,RRIRGRPPRLPRPRPRPFEEPRP,0.231
17,RRIRKRPPRLPRPRPRPLLWPRP,0.443
18,RRIRGRPPRLPRPRPRPLENPRP,0.766
19,RRIRQRPPRLPRPRPRPERQPRP,-0.0407
20,RRIRNRPPRLPRPRPRPWRNPRP,0.0352
21,RRIRMRPPRLPRPRPRPQDDPRP,-0.00208
22,RRIRNRPPRLPRPRPRPSAVPRP,-0.193
23,RRIRSRPPRLPRPRPRPKNWPRP,0.176
24,RRIRMRPPRLPRPRPRPTLNPRP,0.299
25,RRIRRRPPRLPRPRPRPYPLPRP,0.015

row,Sequence,shrunken log2 fold change
1,RRIRVRPPRLPRPRPRPAPLPRP,0.255
2,RRIRERPPRLPRPRPRPRNPPRP,-0.0856
3,RRIRMRPPRLPRPRPRPDSVPRP,-0.045
4,RRIRCRPPRLPRPRPRPQLTPRP,-0.147
5,RRIRERPPRLPRPRPRPPRMPRP,0.027
6,RRIRVRPPRLPRPRPRPLCIPRP,-0.499
7,RRIRERPPRLPRPRPRPRDRPRP,0.0224
8,RRIRERPPRLPRPRPRPCKQPRP,-0.086
9,RRIRPRPPRLPRPRPRPDWPPRP,0.524
10,RRIRMRPPRLPRPRPRPLSMPRP,-0.289
11,RRIRERPPRLPRPRPRPLTLPRP,-0.271
12,RRIRGRPPRLPRPRPRPSNEPRP,0.131
13,RRIRARPPRLPRPRPRPCQFPRP,-0.0602
14,RRIRYRPPRLPRPRPRPDFIPRP,-0.348
15,RRIRCRPPRLPRPRPRPTWYPRP,-0.28
16,RRIRYRPPRLPRPRPRPNFNPRP,-0.818
17,RRIRSRPPRLPRPRPRPLPCPRP,-0.00277
18,RRIRYRPPRLPRPRPRPPANPRP,0.169
19,RRIRPRPPRLPRPRPRPYPGPRP,-0.159
20,RRIRDRPPRLPRPRPRPTMMPRP,0.338
21,RRIRPRPPRLPRPRPRPIAGPRP,0.0445
22,RRIRERPPRLPRPRPRPVINPRP,-0.217
23,RRIRLRPPRLPRPRPRPNAVPRP,0.00719
24,RRIRDRPPRLPRPRPRPPVSPRP,0.0155
25,RRIRIRPPRLPRPRPRPDCLPRP,0.0966

row,Sequence,shrunken log2 fold change
1,RRIRGRPPRLPRPRPRPNQPPRP,0.295
2,RRIRERPPRLPRPRPRPEHWPRP,0.0984
3,RRIRGRPPRLPRPRPRPRETPRP,1.86
4,RRIRERPPRLPRPRPRPCSFPRP,-0.153
5,RRIRDRPPRLPRPRPRPQIEPRP,-0.0186
6,RRIRPRPPRLPRPRPRPPPMPRP,0.52
7,RRIRARPPRLPRPRPRPFFIPRP,-0.211
8,RRIRRRPPRLPRPRPRPKEWPRP,0.044
9,RRIRSRPPRLPRPRPRPGWFPRP,0.44
10,RRIRTRPPRLPRPRPRPCYPPRP,-0.425
11,RRIRGRPPRLPRPRPRPCQHPRP,-0.153
12,RRIRHRPPRLPRPRPRPKYIPRP,-0.796
13,RRIRFRPPRLPRPRPRPHGDPRP,0.0644
14,RRIRSRPPRLPRPRPRPVRPPRP,0.742
15,RRIRPRPPRLPRPRPRPWLFPRP,-0.0483
16,RRIRRRPPRLPRPRPRPPEPPRP,0.977
17,RRIRFRPPRLPRPRPRPTMHPRP,-0.138
18,RRIRHRPPRLPRPRPRPGWCPRP,0.399
19,RRIRCRPPRLPRPRPRPWSVPRP,-0.34
20,RRIRRRPPRLPRPRPRPQLDPRP,-0.0387
21,RRIRDRPPRLPRPRPRPNLQPRP,-0.71
22,RRIRIRPPRLPRPRPRPRFKPRP,-0.575
23,RRIRLRPPRLPRPRPRPQAEPRP,0.0388
24,RRIRIRPPRLPRPRPRPQYEPRP,-0.184
25,RRIRQRPPRLPRPRPRPSSHPRP,0.0105

row,Sequence,shrunken log2 fold change
1,RRIRHRPPRLPRPRPRPQPQPRP,-0.00539
2,RRIRGRPPRLPRPRPRPVSKPRP,0.276
3,RRIRTRPPRLPRPRPRPWCNPRP,-0.0437
4,RRIRKRPPRLPRPRPRPQTSPRP,-0.122
5,RRIRTRPPRLPRPRPRPQDQPRP,0.0516
6,RRIRYRPPRLPRPRPRPVRPPRP,0.924
7,RRIRARPPRLPRPRPRPMSQPRP,0.235
8,RRIRTRPPRLPRPRPRPISVPRP,-0.0512
9,RRIRFRPPRLPRPRPRPTTFPRP,-0.388
10,RRIRDRPPRLPRPRPRPVNSPRP,0.0226
11,RRIRGRPPRLPRPRPRPYWSPRP,-0.251
12,RRIRLRPPRLPRPRPRPCDSPRP,-0.165
13,RRIRCRPPRLPRPRPRPQLKPRP,-0.194
14,RRIRHRPPRLPRPRPRPCWYPRP,-0.0677
15,RRIRPRPPRLPRPRPRPMSGPRP,0.115
16,RRIRLRPPRLPRPRPRPWQKPRP,0.0576
17,RRIRPRPPRLPRPRPRPCLNPRP,-0.35
18,RRIRWRPPRLPRPRPRPHTIPRP,-0.533
19,RRIRFRPPRLPRPRPRPYMMPRP,-0.34
20,RRIRFRPPRLPRPRPRPDSAPRP,-0.102
21,RRIRRRPPRLPRPRPRPAEQPRP,0.275
22,RRIRYRPPRLPRPRPRPDRNPRP,-0.018
23,RRIRMRPPRLPRPRPRPAYGPRP,-0.00861
24,RRIRVRPPRLPRPRPRPHACPRP,0.0734
25,RRIRERPPRLPRPRPRPKDYPRP,0.101

row,Sequence,shrunken log2 fold change
1,RRIRNRPPRLPRPRPRPFLLPRP,-0.295
2,RRIRIRPPRLPRPRPRPFEDPRP,-0.207
3,RRIRCRPPRLPRPRPRPWTCPRP,-0.323
4,RRIRKRPPRLPRPRPRPGQPPRP,0.0678
5,RRIRFRPPRLPRPRPRPWPTPRP,-0.0457
6,RRIRHRPPRLPRPRPRPVISPRP,-0.199
7,RRIRNRPPRLPRPRPRPQCRPRP,-0.132
8,RRIRPRPPRLPRPRPRPTNRPRP,-0.104
9,RRIRVRPPRLPRPRPRPLKNPRP,-0.0569
10,RRIRKRPPRLPRPRPRPRPQPRP,0.865
11,RRIRWRPPRLPRPRPRPHYAPRP,-0.0597
12,RRIRGRPPRLPRPRPRPFSNPRP,0.064
13,RRIRFRPPRLPRPRPRPTVVPRP,0.174
14,RRIRFRPPRLPRPRPRPWEWPRP,0.0781
15,RRIRERPPRLPRPRPRPHSDPRP,-0.0192
16,RRIRYRPPRLPRPRPRPSSHPRP,-2.24
17,RRIRPRPPRLPRPRPRPTRLPRP,0.769
18,RRIRNRPPRLPRPRPRPFQWPRP,-0.212
19,RRIRVRPPRLPRPRPRPASNPRP,-0.0943
20,RRIRARPPRLPRPRPRPGYPPRP,0.0269
21,RRIRKRPPRLPRPRPRPWRTPRP,0.379
22,RRIRKRPPRLPRPRPRPQADPRP,0.0626
23,RRIRYRPPRLPRPRPRPTISPRP,-0.893
24,RRIRYRPPRLPRPRPRPGWVPRP,0.0444
25,RRIRMRPPRLPRPRPRPYCRPRP,-0.0603
